According to paper PMC4250094 (Structure (London, England : 1993), 2010):

Target: the molecule itself
Test: oligomer pelleting by centrifugation with UV absorbance of the supernatant

B1: RAGE VC1 (tandem V and C1 domains of the receptor for advanced glycation end products) (domain or fragment, human)
chain: AQNITARIGEPLVLKCKGAPKKPPQRLEWKLNTGRTEAWKVLSPQGGGPWDSVARVLPNGSLFLPAVGIQDEGIFRCQAMNRNGKETKSNYRVRVYQIPGKPEIVDSASELTAGVPNKVGTCVSEGSYPAGTLSWHLDGKPLVPNEKGVSVKEQTRRHPETGLFTLQSELMVTPARGGDPRPTFSCSFSPGLPRHRALRTAPIQPRVWEPVPLEEVQL
Kd: 3.8 ± 1.3 µM
